Reference: publication doi:10.1101/2022.03.11.483953, “Structure and regulation of the myotonic dystrophy kinase-related Cdc42-binding kinase” (bioRxiv, 2022)

Columns and labels:
[1] = target: T1, FITC-labeled CRIB peptide of C. elegans MRCK1 (residues 1543-1572) (C. elegans, UniProt O01583 1543-1572, fluorescein (FITC) label, position not stated); assay: fluorescence polarisation; fluorescence anisotropy; Cdc42^2-178 loaded with GMPPNP titrated into 100 nM fluorescein-labeled peptide; 20 °C, 20 mM Tris pH 8.0, 100 mM NaCl, 1 mM TCEP; one-site binding model; conditions: both partners purified
T1 construct: MRCK1, C. elegans, CRIB motif, residues 1543-1572; also called CRIB motif peptide; fluorescein-labeled peptide
T1 peptide (looked up): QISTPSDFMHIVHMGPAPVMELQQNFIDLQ

[2] = target: the molecule itself; assay: rotary shadowing electron microscopy; samples at 50 μg/ml in 100 mM ammonium acetate, 30% (v/v) glycerol, pH 7.4, sprayed on mica, coated with platinum and carbon

B1: Cdc42^2-178 (C-terminally truncated Cdc42 lacking its geranylgeranylation motif) (domain or fragment)
chain: not shown
notes: Cdc42, residues 2-178, C-terminally truncated; Loaded with GDP or with GMPPNP (Dbs exchange factor, then size exclusion) before the titration; the two loaded states are told apart by the assay; The species may be human instead (P60953); also called Cdc42 (residues 2-178); source: E. coli, purified (GST beads, TEV cleavage, SD75 size exclusion); not shown: GST, N-terminal, cleaved
Question: How did the “fold stronger than Cdc42 bound to GDP” value [1] turn out when B1 was run?
Answer: 5 fold

B2: C. elegans MRCK1, full length (MRCK1^1-1592) (enzyme, UniProt O01583 1-1592, looked up)
chain: MAEPPPDDSAPVRLKTLENIYMDGPSKKPEALSFETLIDSLICLYDECCNSTLRKEKCIAEFVESVKTVISKAKKLRLSRDDFEVLKVIGKGAFGEVAVVRMRGVGEIYAMKILNKWEMVKRAETACFREERDVLVYGDRRWITNLHYAFQDEKNLYFVMDYYIGGDMLTLLSKFVDHIPESMAKFYIAEMVLAIDSLHRLGYVHRDVKPDNVLLDMQGHIRLADFGSCLRILADGSVASNVAVGTPDYISPEILRAMEDGRGRYGKECDWWSLGICMYEMLYGTTPFYSERLVDTYGKIMSHQDMLDFPDDEIDWVVSEEAKDLIRQLICSSDVRFGRNGLSDFQLHPFFEGIDWNTIRDSNPPYVPEVSSPEDTSNFDVDVCEDDFTPCLQETQPPRVLAAFTGNHLPFVGFSYTHGSLLSDARSLTDEIRAIAQRCQGDAELMEKSVDGFMVELENEKAELVQKLKEAQTIIAQHVAENPRSEEDRNYESTIAQLKDEIQILNKRLEDEALAQQQQKPKDEIVAESEKKLKELKERNKQLVMEKSEIQRELDNINDHLDQVLVEKATVVQQRDDMQAELADVGDSLLTEKDSVKRLQDEAEKAKKQVADFEEKLKEIETEKIALIKKQEEVTIEARKSVETDDHLSEEVVAAKNTIASLQATNEERETEIKKLKQRMDEERASHTAQSEQEMKQLEAHYERAQKMLQDNVEQMNVENRGLRDEIEKLSQQMAALPRGGLNEQQLHEIFNWVSEEKATREEMENLTRKITGEVESLKNNSPLTTSNYIQNTPSGWGSRRMNNVARKDGLDLQRQLQAEIDAKLKLKAELKNSQEQYLTSAARLDDTEKRMASLMREVAMLKQQKNIENSSDSAFSSTMGRGDLMISMNNDYEMSNSSLMRQEMISRQSTPSYENAILLHDHQVPKRVDDLRYKQKPMKTASGIFSPVSISAMERGHNFERMKIKTPTKCGHCTSILIGLDRQGLFCQSCQYACHVSCAERVSQSCPVPEEERRPLGIDPTRGVGTAYEGLVKTPRAGGVRKGWQTAYVVVCDFKLYLYDCTVDRQNKMQDVKNEIRLVLDMRDPDFTVCGVSEADVIHAQKGDIPKIFRVTTTQILNSSSEYSSSSKFYTLFMAETEEEKRKWVVALSELKTLLRRSKLADRKAFLVKEVFDVTTLPSIRVAQCCAIIDRSKIVIGFSDHGLYCIEISRQLLIPVGGEKENKQRCVETVEYDEAEQLLMMIVGPAKDRHVRIVPSAALDGRDLKWIKVNDTKGCHLLAVGTNNPGGRAGFFAVAFKKSVTIFQIDRSEKRHKKWKDLAMPGTPQSIAIFNGRLYVGFSHSFRSWSLVGVDSSPVGSGDASGAVLQHISLVNMEDTSLQFLNQQTSYEAKLIVNVPGSPDEYLLVFNMIGLYVNEMGRRSRLPEVMFPTQAKYFAYHEPYLCVFSENEVDIFNVTLAEWVQTINLRSAKPLSGDGILSTCLCNDSPIFVLLQNVLQDQDSIEVPVNLASGSTDGRKVTRRKFTFRTIGKDDRSASERRSHIQISTPSDFMHIVHMGPAPVMELQQNFIDLQSNHSHTSSDKDSLNRSVNND
notes: source: baculovirus-infected Sf9 insect cells, purified (HisTrap, TEV cleavage, HiTrap Q); not shown: His10, N-terminal, cleaved; StrepII, N-terminal, cleaved
Question: B2 was tested. Which “stoichiometry N” value [2] did it give?
Answer: 2
